Measurements reported in the domain aggregation screens of Martell et al. (2025).
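Further: 20 min heating vs room temperature control held 20 min.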

Experiment: soluble fraction after stress (log2 fold change); higher = more stays soluble; pooled small domains, quantitative proteomics
Settings: stress: 75 degC
With “HMPQTNIYPNPAFDKLFVSNLENETNFKIMDLFGRTIINSKTKGEISISELKSGIYIIEINNFRQKFVK” the “soluble fraction (log2)” value was -2.64.
With “HMPQVALAIDEMKRELASPDIVKTLLATTFKGLSEVNMRQAMLDGMIQGHTIADFFKKDVYAIPFGSGYSL” the “soluble fraction (log2)” value was 0.049.
With “HMPRPFPELTTREHDILALIARGWSNGRIADHLSLSGKTVSNYVSNILGKLQVTARAEAAERAREAGMGQ” the “soluble fraction (log2)” value was -0.379.
With “HMPRRSYLDARKKLLGMLNSPDFNSGDQIPAERELSEVLGISRVTVRKIITELIDEGVLERRGNQGTWLVD” the “soluble fraction (log2)” value was -1.01.
In the case of “HMPRSREVHVEPGMVLEDVTTGFVGAVIRTEKSAGIYVIELEDRRGRRRSFPLGGGFWLDGRPIIALPPLP”, the “soluble fraction (log2)” value is reported as -1.81.
For “HMPSLAVYPNPVKDILNIATDKPVHSIRIYNVYGSEVLRAADTNRIDVSHLPAGVYMVSADGKVTRIIK”, the “soluble fraction (log2)” value was -0.858.
For “HMPSLGGLLALLKRNRKPDAMEALDRLISKEDRPETAEALENIREKVRNMQMREAEGLLLALMEP”, the “soluble fraction (log2)” value was -0.509.
In the case of “HMPSLILADEPTGNLDSRNSSEVIALLKNASKRYAQTIIMITHNRSIAQSADRVLQVSDGVLTDMG”, the “soluble fraction (log2)” value is reported as 0.345.
For “HMPSLNDRPDDVLYLFSYFLQSFSHRQVSLPKILKKALIQHDWWGNIRELHSVALRYYIFGDTLNGAYDSL”, the “soluble fraction (log2)” value was -0.99.
With “HMPSLSREREAAILEMIERRPSTAEDVASGLGLAVNEVIKLLDGTALRGSVETFQSGEEIYYTRKR” the “soluble fraction (log2)” value was 0.472.
For “HMPSNVKIPDVTGKTVAQARSAIEAAGLKVGKEKDEYSDSAKKDSVIRTNPQAGTQRREGSTVDLIVS”, the “soluble fraction (log2)” value was 0.175.
In the case of “HMPSPFYIMDEVEAALDDTNLGRLITLFEELRDSSQLIVITHQKKTMEIADALYGVTMRGDGITTVVSQRL”, the “soluble fraction (log2)” value is reported as 0.151.
For “HMPSQEQSDKNAAMAFLPVIVKNALNGKGLKISDDWKAAVNTALAQYPLVNKFFNADSPEVTELVMGL”, the “soluble fraction (log2)” value was -0.0584.
For “HMPSQLPLAFARRHGVLLRGFSNGLAQLTVRPEVSTLSLAETRRHLGVPLALEKVTTERFDQLLREAYEA”, the “soluble fraction (log2)” value was -0.9.
For “HMPSYYKELQNYSPENPVVKKRKVHPDVVNAIKYLAEITDGNPMLIKAYAQMILAHVFTTMPLIDKSV”, the “soluble fraction (log2)” value was -0.00519.
With “HMPTEAIVLQQIQIRQSPSGNSKSLQQILPGAKIKITSESSVKGWKQVSLDGGQKGWIPTAAIGL” the “soluble fraction (log2)” value was -0.499.
In the case of “HMPTELVYTVPASAEGLRLDHFLVQHVPHMTRALATELTGAGGVRVNGRRAKKGDRLPSGAEVRLER”, the “soluble fraction (log2)” value is reported as 0.0576.
In the case of “HMPTFAEKLHEVRKARDFTQDQLAKEMNVSRQTISHWENGRAVPDIDTIKHLSQVLDYNFLV”, the “soluble fraction (log2)” value is reported as 0.0869.
With “HMPTITIQRGIILSSTTKGFIDELSHSQIKNAIVERLGEHHVMIHESQLDAVIKYAQKKEAVINIYL” the “soluble fraction (log2)” value was -0.874.
For “HMPTMEQTYIGRTMIAEEDMGKNSKIKVSGIYWTAYNKGRVIKKGEEYKITGIEGNKLIVSSK”, the “soluble fraction (log2)” value was -0.393.
With “HMPTNSDRLIGSDGVVSSKIDNLQGTGKVYISGLTWSARTIDGSEAEEGDIVTVEKIEGATLYVTKR” the “soluble fraction (log2)” value was 0.174.
In the case of “HMPTNVYSIIGKEGIVLESIDNLNSTGKVKVNGELWSAISDSNIEKGETIKVLSVNGVKLKVEKVN”, the “soluble fraction (log2)” value is reported as -0.00656.
In the case of “HMPTPASGSSGYINATNVNFRTGPATSYKSISKLAKNTAVTILGTSGNWYKVTVGSLGKNGYVFATYVTVS”, the “soluble fraction (log2)” value is reported as -2.23.
In the case of “HMPTPLTPREHEIANLIAQGLSNREIADELVISPATAARHVANILAKLGFSSRTQVASWATRHD”, the “soluble fraction (log2)” value is reported as -0.277.
In the case of “HMPTSLPGIDIDEKNIVSSTGALSFKKVPKKLAIIGGGYIGLEMGSVWSRLGSSVTVIEYLNFITPG”, the “soluble fraction (log2)” value is reported as 0.365.
For “HMPTTLEGIEKYLSSGLIKGIGPHLAGKLVEAFGTRVFEVVEHQPERLRTVGGIGRTRAESITSAWRDQ”, the “soluble fraction (log2)” value was -0.146.
For “HMPTTNIRAFRLREADPESVKEALSMVMPKTSIYVDARTKSVLVVGLLDELARAAEIVALIDQP”, the “soluble fraction (log2)” value was -2.8.
For “HMPVFSAEQVAKAEADVQKVANKVQEAGADVEKLTTIHNWLLAREKYMPPDLFSTANQIIATAFQKAG”, the “soluble fraction (log2)” value was 0.525.
With “HMPVGSIGERLKALRLKAGLTQEEVGQHVHISKQTLYKYENGIVTNIPADKIELLATIYSVTPAYIMGWA” the “soluble fraction (log2)” value was -2.27.
In the case of “HMPVQPMDPSIEHISALTGKQFQAFPGQDHRAHMTAHLNFMSTNIVRNNPAVMGAIQKNILEHISLMAQEQ”, the “soluble fraction (log2)” value is reported as 0.322.
In the case of “HMPVSLHEQIQQARIRAEQNVEGISLLLQVNPKYYEQIEAGDVIPDQDLLKRISSLFGWNYHEMLHREKSS”, the “soluble fraction (log2)” value is reported as -0.781.
For “HMPVSTLLGDNLRRLRTAKGYTQEAVADAARISVAAYRNYETGRAIPKVNTLLAIARALGVSLNDLVTE”, the “soluble fraction (log2)” value was -0.605.
With “HMPVTAQFDFSKVLAGRTLKDGEFSFVLKDKNGTVLQTKTNDASGKVAFDALIYKNNEVGEHKYTVEEVI” the “soluble fraction (log2)” value was 0.237.
In the case of “HMPVVKIPFILTEGPSSITKVIEIDADEILELKDVFQEDDKLWSINQIEMNDGRYVKHSDASLIVRASALR”, the “soluble fraction (log2)” value is reported as 0.233.
With “HMPYHSEAWHKVMKSHWLTLSREEAYMHEGRTGASTINIVFQRELGREATQEEIESIYQEKSVLFNSYP” the “soluble fraction (log2)” value was -1.52.
For “HMPYLVNGFILEVQSDDNNPVGTLKRRYAVAKNKQGVILLEGEKSFSSNDQILINELKFYIQSNDLKA”, the “soluble fraction (log2)” value was -2.56.
With “HMPYSKIALQISHLLKSHGVPLSNKQIYEKLINDFQLSINYSNLTNNILPRMNSDSSINVEKVTRGYWQY” the “soluble fraction (log2)” value was -0.931.
For “HMQADKYKSYTATDFLKDKDFLRWQLFNGEEDMLFWGRVIEEYPALRSRVEEGIVLYKDNIR”, the “soluble fraction (log2)” value was -0.711.
For “HMQADTATITGNGVNMRSGPGTNYQIIDTIPKGTVAEVLSQQDGWVKIYSARISGWVSASYVEIKQT”, the “soluble fraction (log2)” value was -2.5.
With “HMQAGNAVEQYPTIGRLEEVTLGRSQPGAPIGERLSTLETVVFKRNFNDDSLFDRTERLKKTILGG” the “soluble fraction (log2)” value was -0.104.
For “HMQAKQVAIPDVANYSVTDAIKKLQDAGFIVSDEQREEANETVSEGKVSRTSPAAGSIRKEGTEIILYKSL”, the “soluble fraction (log2)” value was 0.361.
For “HMQALDETTVSRIRQKAAARNLLLKVLAGQLGVARPTLSNVLARREAPSAALAARIRAFLDSP”, the “soluble fraction (log2)” value was -1.45.
With “HMQALTLVGQDAKDAKAALDAVDIQPAKTETDRYIYVLTEQQAQELGRTVDALYGVEGSLTLILEV” the “soluble fraction (log2)” value was 0.253.
With “HMQAQQYYMLLMNKATSALKIEALGANSNKAHQSFGTKTAGGSAVYWGILFNSNGKIYKIVG” the “soluble fraction (log2)” value was -3.06.
With “HMQASIPQSQKDALAKELQALPPHGRNRVLSTFRQQFNISSEKISEFITTPEHLSFIRSKIAEVESDS” the “soluble fraction (log2)” value was 0.267.
In the case of “HMQDENAVTYLLEIKNADANDIASVLKTLKSPDADVVVYKTLNMIIFTGQGSEINGLVKVARQLDRK”, the “soluble fraction (log2)” value is reported as -2.04.
For “HMQDGVNLENIEQKLSTLGVGKAQYFLQNVGGNKFNAYMALNTDGVEGYQKGSDTLIEIKNVE”, the “soluble fraction (log2)” value was 0.215.
In the case of “HMQDKIWVVDETQLYPKLIEAMSEGKAVIHDGVAYWAEGSGKTGVIQHLPFKETTVQNVEEAIKLAQ”, the “soluble fraction (log2)” value is reported as 0.0953.
In the case of “HMQDKLLRKKEVLEMVSITNSTMYRMIGSGQFPRPIRLDNANINSGVRWKLSEINTFIEQRF”, the “soluble fraction (log2)” value is reported as -0.513.
For “HMQDLAKRWVEEFGDLLYKYTLPRVSDSGIAKDLVQETFLAAWRNIDNFKGEASEKNWLFTILKNKIIDH”, the “soluble fraction (log2)” value was -0.382.
